Experimental findings from patent US20100047264A1 (published 2010) are described below.

Test [1] has as its target T1, free (non-NLP) HCV core protein (1-170) (hepatitis C virus (plasmid pCV-H77c), UniProt P27958 1-170).
T1 construct: range 1-170; also called HCV-C170; free HCV-C170; not shown: His6-tag fused at the C-terminus
T1 sequence: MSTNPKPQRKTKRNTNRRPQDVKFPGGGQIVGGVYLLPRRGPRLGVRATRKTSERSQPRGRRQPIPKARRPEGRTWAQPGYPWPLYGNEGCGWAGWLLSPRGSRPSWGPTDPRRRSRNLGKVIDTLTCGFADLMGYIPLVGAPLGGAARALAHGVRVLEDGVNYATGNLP
Nature of the test: phage display panning (Ph.D.-7 library) on HCV-C170 adsorbed to a plate, 4 rounds, elution with target protein.

The target of test [2] is T2, OmpF porin purified from Salmonella typhi (Salmonella typhi, UniProt Q56113 23-363).
T2 construct: also called S. typhi OmpF; OmpF antigen
T2 sequence: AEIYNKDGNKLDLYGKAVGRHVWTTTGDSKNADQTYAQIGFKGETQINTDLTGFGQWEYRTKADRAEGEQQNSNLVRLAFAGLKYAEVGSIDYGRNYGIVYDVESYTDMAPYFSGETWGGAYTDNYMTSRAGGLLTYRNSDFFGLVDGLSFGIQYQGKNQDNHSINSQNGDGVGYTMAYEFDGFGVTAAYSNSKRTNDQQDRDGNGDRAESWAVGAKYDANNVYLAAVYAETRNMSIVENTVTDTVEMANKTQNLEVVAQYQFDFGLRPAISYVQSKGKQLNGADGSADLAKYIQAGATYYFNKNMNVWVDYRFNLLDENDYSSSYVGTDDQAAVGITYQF
Briefly: phage display panning (Ph.D-7 library) on purified OmpF coated on an ELISA plate, 3 rounds.

For test [3], the target named is T3, HCV core protein (1-170) NLPs (hepatitis C virus (plasmid pCV-H77c), UniProt P27958 1-170).
T3 construct: range 1-170; also called HCV-C170 NLP; not shown: His6-tag fused at the C-terminus
T3 sequence: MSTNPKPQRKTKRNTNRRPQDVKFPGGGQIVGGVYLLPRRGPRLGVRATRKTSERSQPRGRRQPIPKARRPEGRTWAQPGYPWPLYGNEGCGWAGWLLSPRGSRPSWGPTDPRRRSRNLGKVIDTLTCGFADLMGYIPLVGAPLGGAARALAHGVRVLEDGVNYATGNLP
Briefly: ELISA-type binding assay, HCV-C170 NLP coated at 1 µg/ml, 2-fold serial dilution of PapMVCP-STASYTR, detected with rabbit anti-PapMV CP polyclonal. A general note: ELISA stands for enzyme-linked immunosorbent assay.

Test [4] deals with T1, free (non-NLP) HCV core protein (1-170). Briefly: ELISA-type binding assay, free (non-NLP) HCV-C170 coated at 1 µg/ml, 2-fold serial dilution of PapMVCP-STASYTR, detected with rabbit anti-PapMV CP polyclonal.

Where no end group is shown, it is not given here.

B1: HCV core affinity peptide HSPKNLH (peptide)
peptide: HSPKNLH
modifications: not fully specified
Take B1: in test [1], the binding result was “binds”.

B2: HCV core affinity peptide GVQIMGR (peptide)
peptide: GVQIMGR
modifications: not fully specified
B2: in test [1], the binding result was “binds”.

B3: HCV core affinity peptide GPSTPIR (peptide)
peptide: GPSTPIR
modifications: not fully specified
Regarding B3, in test [1], the binding result is reported as “binds”.

B4: HCV core affinity peptide NASSLRS (peptide)
peptide: NASSLRS
modifications: not fully specified
Turning to B4, the binding result in test [1] was “binds”.

B5: OmpF affinity peptide FHENWPS (peptide)
peptide: FHENWPS
modifications: not fully specified
Consider B5, for which, in test [2], the binding result is given as “binds”.

B6: OmpF affinity peptide FHEFWPT (peptide)
peptide: FHEFWPT
modifications: not fully specified
In the case of B6, the binding result in test [2] is given as “binds”.

B7: PapMVCP-STASYTR (VLPs of PapMV coat protein fused to the HCV core affinity peptide STASYTR and a histidine tag) (designed binder)
chain: MASTPNIAFPAITQEQMSSIKVDPTSNLLPSQEQLKSVSTLMVAAKVPAASVTTVALELVNFCYDNGSSAYTTVTGPSSIPEISLAQLASIVKASGTSLRKFCRYFAPIIWNLRTDKMAPANWEASGYKPSAKFAAFDFFDGVENPAAMQPPSGLTRSPTQEERIANATNKQVHLFQAAAQDNNFASNSAFITKGQISGSTPTIQFLPPPETSSTASYTRTRHHHHHH
notes: also called PapSTA; PapMV-STASYTR
As for B7, the binding result in test [3] and in test [4] was “binds” each time.

B8: HCV core affinity peptide SIQYTGV (peptide)
peptide: SIQYTGV
modifications: not fully specified
Consider B8, for which, in test [1], the binding result is “binds”.

B9: HCV core affinity peptide STASYTR (peptide)
peptide: STASYTR
modifications: not fully specified
Regarding B9, the binding result in test [1] was “binds”.

B10: HCV core affinity peptide NTPQGMT (peptide)
peptide: NTPQGMT
modifications: not fully specified
As to B10, in test [1], the binding result is “binds”.
